Residue numbers refer to the chain shown, from its start.
Key:
[1] = test system: T1, Pb2Cpf1 (Prevotella bryantii B14); assay: cell_activity; settings: pea protoplasts, NGS; PAM TTTC per claims
T1 sequence: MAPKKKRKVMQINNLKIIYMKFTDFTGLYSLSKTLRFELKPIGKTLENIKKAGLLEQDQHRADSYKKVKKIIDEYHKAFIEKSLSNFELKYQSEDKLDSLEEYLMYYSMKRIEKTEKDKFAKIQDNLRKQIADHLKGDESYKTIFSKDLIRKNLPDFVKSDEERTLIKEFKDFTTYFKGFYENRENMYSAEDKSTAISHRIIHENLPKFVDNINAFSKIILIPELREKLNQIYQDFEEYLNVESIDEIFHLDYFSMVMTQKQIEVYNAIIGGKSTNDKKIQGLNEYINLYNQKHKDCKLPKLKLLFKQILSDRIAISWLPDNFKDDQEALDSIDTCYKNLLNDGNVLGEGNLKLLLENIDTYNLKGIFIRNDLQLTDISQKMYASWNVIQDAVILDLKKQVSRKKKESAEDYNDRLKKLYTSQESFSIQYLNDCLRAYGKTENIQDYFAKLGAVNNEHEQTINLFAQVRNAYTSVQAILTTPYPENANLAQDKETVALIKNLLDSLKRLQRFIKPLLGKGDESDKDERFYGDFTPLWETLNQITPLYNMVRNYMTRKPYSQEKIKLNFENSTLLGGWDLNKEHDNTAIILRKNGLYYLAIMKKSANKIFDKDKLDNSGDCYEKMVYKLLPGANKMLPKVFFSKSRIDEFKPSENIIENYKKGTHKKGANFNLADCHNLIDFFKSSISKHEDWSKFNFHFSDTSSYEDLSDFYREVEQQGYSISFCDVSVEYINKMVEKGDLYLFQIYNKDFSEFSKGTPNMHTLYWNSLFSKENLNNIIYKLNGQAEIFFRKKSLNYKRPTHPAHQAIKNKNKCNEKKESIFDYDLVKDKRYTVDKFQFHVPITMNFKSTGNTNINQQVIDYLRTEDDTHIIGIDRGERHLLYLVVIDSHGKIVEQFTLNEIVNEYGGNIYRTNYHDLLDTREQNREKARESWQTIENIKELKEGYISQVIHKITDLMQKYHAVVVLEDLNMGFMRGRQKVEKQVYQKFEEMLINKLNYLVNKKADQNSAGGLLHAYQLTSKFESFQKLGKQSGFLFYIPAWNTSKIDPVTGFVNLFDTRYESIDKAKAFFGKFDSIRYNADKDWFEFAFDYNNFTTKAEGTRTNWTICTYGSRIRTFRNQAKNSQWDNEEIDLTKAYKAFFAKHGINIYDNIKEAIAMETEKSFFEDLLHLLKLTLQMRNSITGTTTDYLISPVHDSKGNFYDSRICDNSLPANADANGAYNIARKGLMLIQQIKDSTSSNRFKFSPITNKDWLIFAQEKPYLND

[2] = test system: T2, Pb2Cpf1 E173R (Prevotella bryantii B14); assay: cell_activity; settings: pea protoplasts, NGS; PAM TTTC per claims
T2 sequence: T1 sequence with E182R

“PsLOX2 guide RNA (plasmid 133806, MtU6 promoter; plasmid sequence given) ; PsLOX2 genomic target” was tested, and the activity [1] was 0.32 % editing and the activity [2] was 0.88 % editing.

Reference: US20220333124
